B1: KIF20A 1–665 (His-tagged dimeric motor construct) (domain or fragment, mouse, UniProt P97329 1-665, looked up)
chain: MSHRILSPPAGLLSDEDVVDSPILESTAADLRSVVRKDLLSDCSVISASLEDKQALLEDTSEKVKVYLRIRPFLTSELDRQEDQGCVCIENTETLVLQAPKDSFALKSNERGVGQATHKFTFSQIFGPEVGQVAFFNLTMKEMVKDVLKGQNWLIYTYGVTNSGKTYTIQGTSKDAGILPQSLALIFNSLQGQLHPTPDLKPLLSNEVIWLDSKQIRQEEMKKLSLLIGGLQEEELSTSVKKRVHTESRIGASNSFDSGVAGLSSTSQFTSSSQLDETSQLWAQPDTVPVSVPADIRFSVWISFFEIYNELLYDLLEPPSHQHKRQTLRLCEDQNGNPYVKDLNWIHVRDVEEAWKLLKVGRKNQSFASTHMNQQSSRSHSIFSIRILHLQGEGDIVPKISELSLCDLAGSERCKHQKSGERLKEAGNINTSLHTLGRCIAALRQNQQNRSKQNLIPFRDSKLTRVFQGFFTGRGRSCMIVNVNPCASTYDETLHAAKFSALASQLVHAPPVHLGIPSLHSFIKKHSPQVGPGLEKEDKADSDLEDSPEDEADVSVYGKEELLQVVEAMKALLLKERQEKLQLEIQLREEICNEMVEQMQQREQWCSERLDNQKELMEELYEEKLKILKESLTTFYQEQIQERDEKIEELETLLQEAKQQPAAQQ
notes: source: E. coli NiCO21 (DE3), purified (chitin resin, HisTrap HP, size-exclusion chromatography); not shown: His6, C-terminal, kept
B2: KIF20A 55–665 (domain or fragment, mouse, UniProt P97329 55-665, looked up)
chain: ALLEDTSEKVKVYLRIRPFLTSELDRQEDQGCVCIENTETLVLQAPKDSFALKSNERGVGQATHKFTFSQIFGPEVGQVAFFNLTMKEMVKDVLKGQNWLIYTYGVTNSGKTYTIQGTSKDAGILPQSLALIFNSLQGQLHPTPDLKPLLSNEVIWLDSKQIRQEEMKKLSLLIGGLQEEELSTSVKKRVHTESRIGASNSFDSGVAGLSSTSQFTSSSQLDETSQLWAQPDTVPVSVPADIRFSVWISFFEIYNELLYDLLEPPSHQHKRQTLRLCEDQNGNPYVKDLNWIHVRDVEEAWKLLKVGRKNQSFASTHMNQQSSRSHSIFSIRILHLQGEGDIVPKISELSLCDLAGSERCKHQKSGERLKEAGNINTSLHTLGRCIAALRQNQQNRSKQNLIPFRDSKLTRVFQGFFTGRGRSCMIVNVNPCASTYDETLHAAKFSALASQLVHAPPVHLGIPSLHSFIKKHSPQVGPGLEKEDKADSDLEDSPEDEADVSVYGKEELLQVVEAMKALLLKERQEKLQLEIQLREEICNEMVEQMQQREQWCSERLDNQKELMEELYEEKLKILKESLTTFYQEQIQERDEKIEELETLLQEAKQQPAAQQ
notes: source: E. coli NiCO21 (DE3), purified (chitin resin, HisTrap HP, size-exclusion chromatography)
B3: KIF20A 25–665 (domain or fragment, mouse, UniProt P97329 25-665, looked up)
chain: ESTAADLRSVVRKDLLSDCSVISASLEDKQALLEDTSEKVKVYLRIRPFLTSELDRQEDQGCVCIENTETLVLQAPKDSFALKSNERGVGQATHKFTFSQIFGPEVGQVAFFNLTMKEMVKDVLKGQNWLIYTYGVTNSGKTYTIQGTSKDAGILPQSLALIFNSLQGQLHPTPDLKPLLSNEVIWLDSKQIRQEEMKKLSLLIGGLQEEELSTSVKKRVHTESRIGASNSFDSGVAGLSSTSQFTSSSQLDETSQLWAQPDTVPVSVPADIRFSVWISFFEIYNELLYDLLEPPSHQHKRQTLRLCEDQNGNPYVKDLNWIHVRDVEEAWKLLKVGRKNQSFASTHMNQQSSRSHSIFSIRILHLQGEGDIVPKISELSLCDLAGSERCKHQKSGERLKEAGNINTSLHTLGRCIAALRQNQQNRSKQNLIPFRDSKLTRVFQGFFTGRGRSCMIVNVNPCASTYDETLHAAKFSALASQLVHAPPVHLGIPSLHSFIKKHSPQVGPGLEKEDKADSDLEDSPEDEADVSVYGKEELLQVVEAMKALLLKERQEKLQLEIQLREEICNEMVEQMQQREQWCSERLDNQKELMEELYEEKLKILKESLTTFYQEQIQERDEKIEELETLLQEAKQQPAAQQ
notes: as for B2

Biological target: the molecule itself
Experiment: SEC-MALS; 5 mg ml^-1 of each protein injected into a Superdex 200 10/30 Increase column; MALS and refractive index

Stoichiometry N, 2:
B1
B2
B3
